Changes are numbered by the printed parent chain. Where “and” joins values, the source holds several entries; their conditions need not be identical. Equal entries are not always repeated.
Assays:
Claudin 18.2 VLP [1] = target: T1, Claudin 18.2 VLP (UniProt P56856 1-261); experiment: ELISA, coated antigen 200 ng/well; antibody 0.37 ug/mL
T1 construct: Antigen coated on ELISA plates, 200 ng/well; source and construct not described; also called Claudin18.2-VLP protein; Claudin18.2 VLP antigen

[2] = target: T2, Claudin18.2 recombinant protein (His tag) (UniProt P56856-2 1-261, limits assumed); experiment: as above
T2 construct: also called Claudin18.2-his antigen; not shown: His tag

Claudin 18.2 VLP [3] = target: T1, Claudin 18.2 VLP; experiment: ELISA, coated antigen 200 ng/well; antibody 100 ug/mL (so in the source)
[4] = target: T2, Claudin18.2 recombinant protein (His …); experiment: as above
Claudin 18.2 VLP [5] = target: T1, Claudin 18.2 VLP; experiment: ELISA, coated antigen 200 ng/well
[6] = target: T2, Claudin18.2 recombinant protein (His …); experiment: ELISA, coated antigen 200 ng/well
Claudin 18.2 VLP [7] = target: T1, Claudin 18.2 VLP; experiment: ELISA, coated antigen 200 ng/well; antibody 3.333 ug/mL
[8] = target: T2, Claudin18.2 recombinant protein (His …); experiment: as above
Claudin 18.2 VLP [9] = target: T1, Claudin 18.2 VLP; experiment: ELISA, coated antigen 200 ng/well; antibody 0.123 ug/mL
[10] = target: T2, Claudin18.2 recombinant protein (His …); experiment: as above
Claudin 18.2 VLP [11] = target: T1, Claudin 18.2 VLP; experiment: ELISA, coated antigen 200 ng/well; antibody 1.111 ug/mL
[12] = target: T2, Claudin18.2 recombinant protein (His …); experiment: as above
Claudin 18.2 VLP [13] = target: T1, Claudin 18.2 VLP; experiment: ELISA, coated antigen 200 ng/well; antibody 0.014 ug/mL
[14] = target: T2, Claudin18.2 recombinant protein (His …); experiment: as above
Claudin 18.2 VLP [15] = target: T1, Claudin 18.2 VLP; experiment: ELISA, coated antigen 200 ng/well; antibody 0.041 ug/mL
[16] = target: T2, Claudin18.2 recombinant protein (His …); experiment: as above
Claudin 18.2 VLP [17] = target: T1, Claudin 18.2 VLP; experiment: ELISA, coated antigen 200 ng/well; antibody 0 ug/mL (blank well, background)
[18] = target: T2, Claudin18.2 recombinant protein (His …); experiment: as above
Claudin 18.2 VLP [19] = target: T1, Claudin 18.2 VLP; experiment: ELISA, coated antigen; lower end, tied by Table 3 to 10-hIgG1Fc on the VLP (4.96 nM)
[20] = target: T3, Human Claudin-18.2 protein (human, UniProt P56856-2 1-261, limits assumed); experiment: SPR (Biacore 8K), antibody captured on Protein A, Claudin-18.2 protein as analyte
T3 construct: Soluble analyte injected over captured antibodies in SPR

[21] = target: T4, human Claudin18.2 expressed on cells (human, UniProt P56856-2 1-261); experiment: flow cytometry on 293FT CLDN18.2-Luc cells, APC anti-mouse IgG Fc
T4 construct: whole, on cells; also called CLDN18.2

[22] = target: T4, human Claudin18.2 expressed on cells; experiment: phage flow cytometry, phage supernatant, PE anti-M13

B1: 10-hIgG1Fc (Fc fusion)
chain: QVQLAESGGGLVQPGGSLRLSCAASGNILSINYMGWYRQAPGKERELVATITRGGTTNYQGDLKGRFIISGDNTKDTVYLQMNNLQPEDTAVYYCYFRINFGILGGLRDYWGQGTQVTVSS
notes: VHH-hIgG1Fc recombinant antibody; also called 10-hlgG1Fc; VHH-hIgG1Fc recombinant antibody of clone 10; not shown: human IgG1 Fc (hIgG1Fc)
- absorbance at 450 nm (Claudin 18.2 VLP [1]): 1.46
- absorbance at 450 nm [2]: 0.476
- absorbance at 450 nm (Claudin 18.2 VLP [3]): 2.62
- absorbance at 450 nm [4]: 3.38
- EC50 (Claudin 18.2 VLP [5]): 0.4 µg/mL and 4.96 nM
- EC50 [6]: 4 µg/mL and 50 nM
- absorbance at 450 nm (Claudin 18.2 VLP [7]): 2.51
- absorbance at 450 nm [8]: 2.15
- absorbance at 450 nm (Claudin 18.2 VLP [9]): 0.568
- absorbance at 450 nm [10]: 0.172
- absorbance at 450 nm (Claudin 18.2 VLP [11]): 2.14
- absorbance at 450 nm [12]: 1.06
- absorbance at 450 nm (Claudin 18.2 VLP [13]): 0.329
- absorbance at 450 nm [14]: 0.063
- absorbance at 450 nm (Claudin 18.2 VLP [15]): 0.355
- absorbance at 450 nm [16]: 0.084
- absorbance at 450 nm (Claudin 18.2 VLP [17]): 0.311
- absorbance at 450 nm [18]: 0.054
- EC50 (Claudin 18.2 VLP [19]): 4 nM

B2: 2-mIgG2aFc (Fc fusion)
chain: B1 chain with Q1E, A5V, T56S, D62N
notes: Fusion antibody anti-Claudin18.2 VHH-mIgG2aFc; also called 2-mIgG Fc; 2-mlgG2a Fc; not shown: mouse IgG2a Fc (mIgG2aFc)
- Kd [20]: 1.1 nM
- koff [20]: 0.00052 s⁻¹
- kon [20]: 471000 M⁻¹ s⁻¹
- EC50 [21]: 0.02 nM

B3: VHH clone 14 (phage-displayed) (VHH)
VHH: EVQLVESGGGLVQPGGSLRLSCAASGSLFSIITMGWYRQAPGKQRELVATVTRGGRLNYGDSVKGRFTISSGNVENTLDLQMNNLKPEDTAVYYCNAILESGNFWGRGTQVTVSS
notes: Tested as phage supernatant, detected with PE anti-M13; also called Clone ID 14
- binding result [22]: binds

B4: VHH clone 4 (phage-displayed) (VHH)
VHH: EVQLVESGGGLVQPGGSLRLSCAASGQFFSLNYLAWYRQAPGSQRELIALVSSGGSTQYGDSVKGRFTISRDNAKNTVYLQMASLKPEDTAVYYCNLHTYDFLGRDYWGQGTQVTISS
notes: Tested as phage supernatant, detected with PE anti-M13; also called Clone ID 4
- binding result [22]: binds

B5: 18-mIgG2aFc (Fc fusion)
chain: QVQLVESGGGLVQPGGSLRLSCAASGSILNLMTTGWYRQAPGKQRDLVATITFGGTTNYADAVKGRFTISRDNAKNTVYLQMNNLEPEDTAVYFCYLDYIFGFGDRRVAWDQGTQVTVSS
notes: Fusion antibody anti-Claudin18.2 VHH-mIgG2aFc; not shown: mouse IgG2a Fc (mIgG2aFc)
- EC50 [21]: 0.06 nM

B6: VHH clone 11 (phage-displayed) (VHH)
VHH: QVQLVESGGGLVQPGGSLRLSCAASGNILSINYMGWYRQAPGKERELVAIITRGGSTTYAPSLKGRFTISGDNAKDTVYLQMNSLQPEDTAVYYCNFRINFGILGGLRDYWGQGTQVTVSS
notes: Tested as phage supernatant, detected with PE anti-M13; also called Clone ID 11
- binding result [22]: binds

B7: 5-mIgG2aFc (Fc fusion)
chain: QVQLVESGGGLVQTGGSLRLSCAASDSTFSSYIMGWFRQAPGKEREFVAGITWSGGIKDYADSVKGRFTIARDNAKNTVYLQMNSLKPEDAAIYYCAANAIQLTRRSGDYAYWGQGTQVTVSS
notes: Fusion antibody anti-Claudin18.2 VHH-mIgG2aFc; also called 5-mIgG Fc; 5-mlgG2a Fc; not shown: mouse IgG2a Fc (mIgG2aFc)
- Kd [20]: 3.02 nM
- koff [20]: 0.000373 s⁻¹
- kon [20]: 123000 M⁻¹ s⁻¹
- EC50 [21]: 0.013 nM

B8: 5-hIgG1Fc (Fc fusion)
chain: B7 chain
notes: VHH-hIgG1Fc recombinant antibody; also called 5-hlgG1Fc; VHH-hIgG1Fc recombinant antibody of clone 5; not shown: human IgG1 Fc (hIgG1Fc)
- absorbance at 450 nm (Claudin 18.2 VLP [1]): 0.942
- absorbance at 450 nm [2]: 1.41
- absorbance at 450 nm (Claudin 18.2 VLP [3]): 2.35
- EC50 (Claudin 18.2 VLP [5]): 0.55 µg/mL and 6.87 nM
- EC50 [6]: 0.81 µg/mL and 10.1 nM
- absorbance at 450 nm (Claudin 18.2 VLP [7]): 2.14
- absorbance at 450 nm [8]: 3.5
- absorbance at 450 nm (Claudin 18.2 VLP [9]): 0.39
- absorbance at 450 nm [10]: 0.463
- absorbance at 450 nm (Claudin 18.2 VLP [11]): 1.86
- absorbance at 450 nm [12]: 2.53
- absorbance at 450 nm (Claudin 18.2 VLP [13]): 0.274
- absorbance at 450 nm [14]: 0.108
- absorbance at 450 nm (Claudin 18.2 VLP [15]): 0.275
- absorbance at 450 nm [16]: 0.207
- absorbance at 450 nm (Claudin 18.2 VLP [17]): 0.247
- absorbance at 450 nm [18]: 0.057

B9: 5H1-mIgG Fc (Fc fusion)
chain: B7 chain with F37V, E44G, R45L, F47W
notes: Subclass printed only as mIgG Fc for this one; also called 5H1-mlgG Fc; H1-mlgG Fc; not shown: mouse IgG Fc (printed mIgG Fc)
- Kd [20]: 7.21 nM
- koff [20]: 0.000552 s⁻¹
- kon [20]: 76600 M⁻¹ s⁻¹

B10: 5H2-mIgG2a Fc (Fc fusion)
chain: B7 chain with T14P, E44G, R45L, A75S, V79L, K87R, P88A, I93V, Q118L
notes: also called 5H2-mIgG Fc; 5H2-mlgG2a Fc; not shown: mouse IgG2a Fc
- Kd [20]: 3.32 nM
- koff [20]: 0.000417 s⁻¹
- kon [20]: 126000 M⁻¹ s⁻¹

B11: 8-hIgG1Fc (Fc fusion)
chain: QVQLVESGGGLVQPGGSLRLSCAASGSIFGLNFMGWWRQAPGSQRELVAIATSGGSIQYGDSVKGRFTISRDNAKNTVYLQMASLKPEDTAVYYCNVHTYDFLGRDYWGQGTQVTVSL
notes: VHH-hIgG1Fc recombinant antibody; also called 8-hlgG1 Fc; VHH-hIgG1Fc recombinant antibody of clone 8; not shown: human IgG1 Fc (hIgG1Fc)
- absorbance at 450 nm (Claudin 18.2 VLP [1]): 0.931
- absorbance at 450 nm (Claudin 18.2 VLP [3]): 2.46
- EC50 (Claudin 18.2 VLP [5]): 0.61 µg/mL and 7.66 nM
- absorbance at 450 nm (Claudin 18.2 VLP [7]): 2.1
- absorbance at 450 nm (Claudin 18.2 VLP [9]): 0.474
- absorbance at 450 nm (Claudin 18.2 VLP [11]): 1.87
- absorbance at 450 nm (Claudin 18.2 VLP [13]): 0.326
- absorbance at 450 nm (Claudin 18.2 VLP [15]): 0.337
- absorbance at 450 nm (Claudin 18.2 VLP [17]): 0.289

B12: VHH clone 9 (phage-displayed) (VHH)
VHH: B11 chain with Q1E, S84N
notes: Tested as phage supernatant, detected with PE anti-M13; also called Clone ID 9
- binding result [22]: binds

B13: VHH clone 3 (phage-displayed) (VHH)
VHH: QVQLVESGGGLVQAGDSVRLSCAASGQTLSNYNVAWFRQAPGKEREFVAGATWSGRITNYSDSVRGRFTISRDNAKNTVYLQMNSLGPGDTAVYHCAANSFQLGDKPGDYHYWGQGTQVTVSS
notes: Tested as phage supernatant, detected with PE anti-M13; also called Clone ID 3
- binding result [22]: binds

— EP4682169A1 (Gracell Biotechnologies (Shanghai) Co., Ltd., dated 2026)
